6 substances from publication PMC5233613 can be followed below.

Entries after “also recorded” stand apart in the source; their conditions may differ.

The target of assay [1] is LC3B 1-125 (UniProt Q9GZQ8). As to the kind of experiment: ITC. (In ITC the heat of successive injections is recorded.)
Assay [2] concerns the target LC3B 1-125 (UniProt Q9GZQ8). As to the kind of experiment: ITC. As to conditions: reference: unphosphorylated peptide; sites S13.
Where [3] appears, read: reference: wild-type LC3B, sites S17.

As to “FUNDC1 10-25 (from UniProt Q8IVP5) LC3B K49A”, the KD result in assay [1] (setting [3]) is listed as “weaker; reference 0.59 ± 0.06”.

As for “FUNDC1 10-25 (from UniProt Q8IVP5) LC3B K49E”, the KD result in assay [1] (setting [3]) was “weaker; reference 0.59 ± 0.06”.

On to “FUNDC1 10-25 (from UniProt Q8IVP5) LC3B K49R”, for which the KD entry in assay [1] (setting [3]) is recorded as “stronger; reference 0.59 ± 0.06”.

For “FUNDC1 10-25 (from UniProt Q8IVP5) pS13 peptide”, the KD entry in assay [2] was “weaker; reference 11.44 ± 1.14; also recorded: weaker; reference 5.62 ± 0.25”; in assay [1] (reference: unphosphorylated peptide, sites S13), “weaker; reference 1.78 ± 0.16”.

Regarding “FUNDC1 10-25 (from UniProt Q8IVP5) pS17 peptide”, the KD result in assay [1] (reference: unphosphorylated peptide, sites S17) is “stronger; reference 1.78 ± 0.16”.

Turning to “FUNDC1 10-25 (from UniProt Q8IVP5) pY18 peptide”, the KD entry in assay [1] (reference: unphosphorylated peptide, sites Y18) is reported as “weaker; reference 1.78 ± 0.16”.
